Source: the RNAGym collection of RNA variant scans (doi:10.7554/elife.80360)

B1: Twister Ribozyme (parent)
chain: AACACUGCCAAUGCCGGUCCCAAGCCCGGAUAAAAGUGGAGGGGGCGG

Variants of: B1
Assay: self-cleavage, relative activity (ratio to wild type); higher = more cleavage; co-transcriptional

Variant	self-cleavage
U31C A35C	1.03
U31C A35G	0.682
A34G A35C	0.742
A30U G45C	0.661
A30U G45U	0.798
A30U G45A	0.817
A34C G48A	0.187
A30G G41C	0.37
A33C U37A	0.447
U31G A33C	1.03
U31G A33U	0.876
A32C G38U	0.723
U31A G44C	0.711
U31G G47A	0.782
U31G G47C	0.755
A34U A35G	0.191
A33C G41C	0.151
A33C G41A	0.309
A30G G47A	0.817
A30G G47U	0.877
A33G G42C	0.268
A33G G42U	0.17
A33U G41C	0.18
A33U G41A	0.472

Variant	self-cleavage
A33U G41U	0.489
A33G C46A	0.894
A33G C46U	0.851
A30G G44U	0.887
A30G G44C	1.02
A32C G47U	0.783
A32C G47C	0.556
A32C G47A	0.764
A30G U31A	0.744
A30G U31G	1.02
A33G G48C	1.07
A33G G48U	0.903
A33G G48A	0.856
U31G G41A	0.574
A33C G48U	1.04
A32G A34C	0.137
U31C G39A	0.456
U31C G39C	0.111
A33G G38U	0.861
U31A G45U	0.619
U31A G45A	0.727
U31C G48U	1.11
A32U A40U	0.193
U31A G41U	0.55

Variant	self-cleavage
A34G A40C	0.198
A32U G45C	0.506
A32U G45A	0.823
U31G G39U	0.203
A30G C46G	0.964
A30G C46U	0.779
A34G G43A	0.136
A34G G43C	0.162
A34G G43U	0.133
A33U G39C	0.0973
A33U G39U	0.162
A33U G39A	0.512
A34C G47C	0.177
U31G	0.933
U31C	1.01
U31A	0.751
U31C A32U	1.02
A33G A34G	0.253
A33G A34U	0.461
A33G A34C	0.108
A30G U37A	0.901
A30G U37C	0.486
A30U A34G	0.937
A30U A34U	0.85

Variant	self-cleavage
A34G G42U	0.131
A30U G48A	1
A30U G48U	1.09
A33C G39A	0.438
A33U G42A	0.283
A33U G42C	0.323
A33U G42U	0.244
A33U G45U	0.843
A33U G45A	0.884
A32G U37C	0.844
A32G U37A	0.752
A33G G45A	0.803
A33G G45U	0.782
U31G G36U	0.374
A33U G47C	0.439
U31G A34G	0.894
U31G A34U	0.904
A30G A33C	1.06
A30G A33U	0.919
A32G G44C	0.907
A32G G44A	0.929
A33C G38C	0.918
A34C G38U	0.138
A33G A35C	0.858

Variant	self-cleavage
A32G G45U	0.668
A32G G45A	0.921
A34G C46G	0.815
U31C A33C	0.925
A32G G42U	0.357
A32G G42C	0.38
A32G G42A	0.319
U31C G36C	0.635
U31C G36U	0.321
A32C G44A	0.881
A32C G44U	0.936
A32C G44C	1.03
A33C C46U	0.961
A33C C46G	0.751
A33C C46A	0.934
A34G G45U	0.553
A34G G45A	0.721
A32G C46G	0.854
A32G C46U	0.933
A32G C46A	0.753
U31A A32C	1.09
U31A A32U	1.05
U31A G38U	0.692
U31A G38A	0.509

Variant	self-cleavage
U31A G38C	0.801
A34U G43U	0.193
A34U G43C	0.186
U31C A34G	0.664
A34U G39C	0.138
U31G G38C	0.894
A33U G43A	0.233
A33U G43C	0.101
A32U G48A	0.942
A34C G39A	0.155
A34C G39C	0.0839
A33U A40G	0.154
A32C G39C	0.079
A32C G39U	0.235
A32C G39A	0.586
A34G U37C	0.0836
A34G U37G	0.314
U31G U37A	0.818
U31G U37C	0.634
A33C A34C	0.383
A33C A34G	0.82
A34C G41A	0.133
U31A A33G	0.82
U31A A33U	0.935

Variant	self-cleavage
U31C G44C	0.976
U31C G44A	1.1
A34C A35C	0.694
A32C U37C	0.494
A32C U37A	0.732
A30G A34G	0.761
A30G A34C	0.497
A30G A34U	0.86
A32C C46G	1.03
A32C C46A	0.837
U31G G45U	0.883
U31G G45C	0.653
U31G A35U	1.01
U31A A40U	0.136
U31A A40G	0.0937
A32U C46U	1.02
A30U G38A	0.987
A34C G44A	0.385
A34C G44C	0.156
A34C G44U	0.165
A32U A34C	0.231
A32G A40G	0.147
U31C G43A	0.323
U31C G43C	0.194

Variant	self-cleavage
A34G G39A	0.133
A34C C46A	0.142
A30U G47U	0.954
A30U G47A	0.927
A33G G47A	0.75
A33G G47U	0.927
A33C G44U	0.97
A30G G48C	1.13
A30G G48U	0.96
A34C A40U	0.0943
A34C A40C	0.122
A32G G38A	0.846
A32G G38C	0.892
U31C C46A	0.733
U31C C46G	0.923
U31C C46U	0.788
A32U G38A	0.85
A32U G38U	0.94
A34C G36C	0.104
A34C G36A	0.0949
A34C G36U	0.084
A33G G44C	0.752
A33G G44U	0.86
A32U G44A	0.919

Variant	self-cleavage
A32U G44U	0.885
A34G G44A	0.809
U31A G39U	0.168
A34U G38C	0.638
A34U G38A	0.654
A34U U37C	0.155
A34U U37A	0.368
A32U A35C	1.01
A32U A35G	0.746
A33G U37A	0.814
A33G U37C	0.532
A30U G41C	0.286
A30U G41U	0.712
A30G G38C	0.868
A30G G38A	0.853
A32G G41A	0.518
A32G G41U	0.609
A32G G41C	0.211
U31C G45A	0.965
U31G A32G	0.836
U31G A32C	0.946
A32C A35C	0.911
A32C A35U	1.05
A32C G36C	0.283

Variant	self-cleavage
A32C G36A	0.473
A33U A34G	0.76
A32G G47C	0.473
A32C A40C	0.159
A30G G42U	0.377
A33C G43A	0.17
A33U G38C	0.77
A33U G38A	0.946
U31C G38C	0.842
A33G G41C	0.197
A33U G36C	0.174
A30G A40G	0.187
A30U C46A	0.872
A30U C46G	0.931
A30G G43U	0.498
A34U G44U	0.771
A32U A33C	0.895
A32U A33U	0.938
A32U G42A	0.324
A32U G42C	0.437
U31A G42A	0.349
U31A G42C	0.503
A32C G43A	0.242
A32C G43C	0.153

Variant	self-cleavage
A33U G48U	0.931
A35C A40U	0.142
A35C A40G	0.18
A34U C46A	0.76
A34U G45C	0.295
A34U G45A	0.815
A32G A33G	0.654
A32C A34C	0.329
U31A A34U	1.07
U31A A34G	0.853
U31C A40C	0.249
U31C A40G	0.0669
A34U G42U	0.145
A34U G42C	0.217
A34U G42A	0.169
A30G G45C	0.571
A30U G43A	0.278
A34G G48A	0.645
A34G G48C	0.791
A32C A33G	0.945
A30U A32C	0.945
A30U A32U	0.879
A32G A35C	0.914
A30U A33C	0.847

Variant	self-cleavage
A33G	0.96
A33U	0.998
A33C	0.975
U31G G43C	0.18
U31G G43U	0.467
U31C G41C	0.306
U31C G41A	0.539
A34G G38C	0.632
A34G G38A	0.629
A33G G43C	0.144
A33G G43A	0.268
A33C G47C	0.274
A33U G44U	0.897
U31A A35U	1.09
U31A A35G	0.803
U31A A35C	0.889
A30G G36U	0.32
U31G C46U	0.928
U31G C46G	0.852
A34G G47C	0.193
A34G G47U	0.553
U31G G44A	0.825
U31G G44C	0.974
U31C G42U	0.407

Variant	self-cleavage
A32U G43C	0.139
U31G G42C	0.699
U31G G42A	0.497
A35C	0.962
U31A U37C	0.591
U31A U37A	0.721
U31A U37G	0.659
A32U G36U	0.148
A32U G36C	0.435
A33G A40G	0.195
A33G A40C	0.17
U31G G48U	0.938
U31G G48A	0.992
A30U G39A	0.614
A30U G39C	0.185
A30U G39U	0.212
A30U G44C	0.963
A30U G44A	0.971
A34U A40C	0.137
A34U A40G	0.122
A34U A40U	0.141
U31G A40U	0.199
U31A C46G	0.763
U31A C46U	0.582

Variant	self-cleavage
A30U G36A	0.762
A30U G36U	0.294
A32C G42U	0.266
A33U U37C	0.379
A32U G41A	0.488
A32G G36A	0.618
A30U G42A	0.464
A34G G36C	0.179
A33G G36C	0.303
A34G G41C	0.12
A34U G48A	0.703
A34U G48U	0.811
A32G G43C	0.0899
A30U U31C	1.02
A30U U31G	0.993
U31C G47A	0.926
A30G A35G	0.869
A33C G36C	0.101
A33C G36U	0.122
A30U U37G	0.912
A34U G36C	0.132
A34U G36U	0.124
